Reference: US20020058275A1, “Compositions, kits, and methods for effecting adenine nucleotide modulation of DNA mismatch recognition proteins” (Thomas Jefferson University, priority 1997, published 2002)

Target: T1, IVTT-hMSH4 (Homo sapiens, UniProt O15457)
T1 construct: made in house; host or cells: in vitro transcription/translation, TNT coupled reticulocyte lysate (Promega), insert in pCR 2.1
T1 sequence (O15457 1-936): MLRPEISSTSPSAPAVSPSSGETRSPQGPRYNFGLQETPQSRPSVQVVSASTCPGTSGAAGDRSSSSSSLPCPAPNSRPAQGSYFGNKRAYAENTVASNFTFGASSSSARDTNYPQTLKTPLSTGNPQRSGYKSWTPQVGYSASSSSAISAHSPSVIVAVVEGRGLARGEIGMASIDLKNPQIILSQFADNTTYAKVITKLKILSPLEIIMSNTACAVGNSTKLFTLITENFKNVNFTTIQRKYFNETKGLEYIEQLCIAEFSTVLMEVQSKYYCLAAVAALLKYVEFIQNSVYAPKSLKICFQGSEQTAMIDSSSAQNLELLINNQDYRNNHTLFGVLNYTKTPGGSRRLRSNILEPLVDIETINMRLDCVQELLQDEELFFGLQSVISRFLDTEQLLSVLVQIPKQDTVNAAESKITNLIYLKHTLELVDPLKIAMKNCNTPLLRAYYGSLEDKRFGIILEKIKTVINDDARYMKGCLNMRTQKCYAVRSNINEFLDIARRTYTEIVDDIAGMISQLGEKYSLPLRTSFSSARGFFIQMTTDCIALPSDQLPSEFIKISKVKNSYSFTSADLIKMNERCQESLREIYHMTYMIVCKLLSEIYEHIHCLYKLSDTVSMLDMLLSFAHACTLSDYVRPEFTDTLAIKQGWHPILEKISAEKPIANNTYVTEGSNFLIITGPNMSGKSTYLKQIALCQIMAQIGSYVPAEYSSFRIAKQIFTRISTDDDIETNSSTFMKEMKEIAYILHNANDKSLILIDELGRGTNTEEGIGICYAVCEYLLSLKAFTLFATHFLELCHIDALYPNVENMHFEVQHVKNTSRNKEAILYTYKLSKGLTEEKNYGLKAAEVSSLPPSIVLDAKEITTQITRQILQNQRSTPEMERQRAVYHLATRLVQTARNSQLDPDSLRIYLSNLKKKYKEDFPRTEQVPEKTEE
Experiment: GST fusion protein interaction assay
Assay type: binding
Settings: GST fusion protein as bait
Protocol: 500 microliters taken from a 5 milliliter overnight starter culture of cells which expressed an hMSH2-, hMSH3-, hMSH5-, or hMSH6-pGEX-fusion protein with (or non-fused pGEX as a negative control) was inoculated into 50 milliliters of Luria broth which contained 50 micrograms per milliliter ampicillin, and this culture was grown until the optical density at 600 nanometers was about 0.5. Protein expression was induced by addition of 0.1 millimolar (final concentration) IPTG for 2 hours at 30° C. Cells were pelleted and resuspended in 750 microliters of phosphate buffered saline containing protease inhibitors. A 10 minute digestion on ice using 1 milligram per milliliter lysozyme was then performed. After the addition of 0.2% (v/v) Triton X-100 and 1 millimolar dithiothreitol (final concentrations), the lysate was snap-frozen in liquid nitrogen and thawed twice. DNaseI (200 units per milliliter; Boehringer Mannheim, Germany) digestion was performed using the thawed lysate for 30 minutes on ice, after which cell debris was removed by centrifugation at 14,000 rpm at 4° C. for 30 minutes in a benchtop microfuge. […]

B1: hMSH5: human MutS homolog, putative 834-amino-acid protein encoded by clone b29 (SEQ ID NO: 29) (protein)
chain: MASLGANPRRTPQGPRPGAASSGFPSPAPVPGPREAEEEEVEEEEELAEIHLCVLWNSGYLGIAYYDTSDSTIHFMPDAPDHESLKLLQRVLDEINPQSVVTSAKQDENMTRFLGKLASQEHREPKRPEIIFLPSVDFGLEISKQRLLSGNYSFIPDAMTATEKILFLSSIIPFDCLLTVRALGGLLKFLGRRRIGVELEDYNVSVPILGFKKFMLTHLVNIDQDTYSVLQIFKSESHPSVYKVASGLKEGLSLFGILNRCHCKWGEKLLRLWFTRPTHDLGELSSRLDVIQFFLLPQNLDMAQMLHRLLGHIKNVPLILKRMKLSHTKVSDWQVLYKTVYSALGLRDACRSLPQSIQLFRDIAQEFSDDLHHIASLIGKVVDFEGSLAENRFTVLPNIDPEIDEKKRRLMGLPSFLTEVARKELENLDSRIPSCSVIYIPLIGFLLSIPRLPSMVEASDFEINGLDFMFLSEEKLHYRSARTKELDALLGDLHCEIRDQETLLMYQLQCQVLARAAVLTRVLDLASRLDVLLALASAARDYGYSRPRYSPQVLGVRIQNGRHPLMELCARTFVPNSTECGGDKGRVKVITGPNSSGKSIYLKQVGLITFMALVGSFVPAEEAEIGAVDAIFTRIHSCESISLGLSTFMIDLNQVAKAVNNATAQSLVLIDEFGKGTNTVDGLALLAAVLRHWLARGPTCPHIFVATNFLSLVQLQLLPQGPLVQYLTMETCEDGNDLVFFYQVCEGVAKASHASHTAAQAGLPDKLVARGKEVSDLIRSGKPIKPVKDLLKKNQMENCQTLVDKFMKLDLEDPNLDLNVFMSQEVLPAATSIL
modifications: left off: a dimerising Fc or GST; large carriers; small tags and cut ends
For B1, the “interaction with IVTT-hMSH4” value was “significant interaction”.
